Source: patent EP4692114A1, “CALCITONIN ANALOGUE, AND DERIVATIVE THEREOF AND USE THEREOF” (Hangzhou Sciwind Biosciences Co., Ltd., priority 2023, dated 2024)
*1 amine or outer side, *2 acyl side, *3 side chain or, on linkers, in order; H or OH if unused. The star is where a group is joined. C22 diacid = O=C(O)CCCCCCCCCCCCCCCCCCCCC(=O)*; C20 diacid = O=C(O)CCCCCCCCCCCCCCCCCCC(=O)*; γGlu = O=C(O)[C@H](CCC(=O)[*:2])N[*:1]; AEEA = NCCOCCOCC(=O)O

T1: human amylin receptor (AMY3) on CHO-K1/Gal5/AMY3 cells (human, UniProt P30988 25-474; O60896 24-148)
T1 sequence (looked up) 1: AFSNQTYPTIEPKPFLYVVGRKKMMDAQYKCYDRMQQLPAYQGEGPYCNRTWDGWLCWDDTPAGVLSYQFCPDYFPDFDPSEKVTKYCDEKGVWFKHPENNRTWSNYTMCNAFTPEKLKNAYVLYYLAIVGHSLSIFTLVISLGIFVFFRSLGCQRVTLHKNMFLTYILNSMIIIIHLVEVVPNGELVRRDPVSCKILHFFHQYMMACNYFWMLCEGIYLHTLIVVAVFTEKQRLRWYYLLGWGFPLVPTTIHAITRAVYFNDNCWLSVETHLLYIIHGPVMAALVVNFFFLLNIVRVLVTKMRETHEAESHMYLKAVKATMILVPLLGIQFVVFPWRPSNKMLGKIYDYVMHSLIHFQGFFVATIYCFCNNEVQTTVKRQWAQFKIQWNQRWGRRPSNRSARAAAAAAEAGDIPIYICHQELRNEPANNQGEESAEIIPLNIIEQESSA
T1 sequence (looked up) 2: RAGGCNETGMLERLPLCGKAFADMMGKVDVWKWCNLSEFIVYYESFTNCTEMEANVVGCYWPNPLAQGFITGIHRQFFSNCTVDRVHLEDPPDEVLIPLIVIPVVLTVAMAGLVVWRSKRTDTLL


Target: T1, human amylin receptor (AMY3) on …
Assay: cell-based or functional assay

EC50/nM, CRE-luciferase in amylin receptor/CRE-luc CHO cells	Binder
0.03 nM	{C20 diacid-γGlu}-RSQLSTEVLGRLSQELHRLQDYPRTDVGSGSP-NH2 (SMILES CC(C)C[C@H](NC(=O)[C@H](CCCNC(=N)N)NC(=O)CNC(=O)[C@H](CC(C)C)NC(=O)[C@@H](NC(=O)[C@H](CCC(=O)O)NC(=O)[C@@H](NC(=O)[C@H](CO)NC(=O)[C@H](CC(C)C)NC(=O)[C@H](CCC(N)=O)NC(=O)[C@H](CO)NC(=O)[C@H](CCCNC(=N)N)NC(=O)CC[C@H](NC(=O)CCCCCCCCCCCCCCCCCCC(=O)O)C(=O)O)[C@@H](C)O)C(C)C)C(=O)N[C@@H](CO)C(=O)N[C@@H](CCC(N)=O)C(=O)N[C@@H](CCC(=O)O)C(=O)N[C@@H](CC(C)C)C(=O)N[C@@H](Cc1c[nH]cn1)C(=O)N[C@@H](CCCNC(=N)N)C(=O)N[C@@H](CC(C)C)C(=O)N[C@@H](CCC(N)=O)C(=O)N[C@@H](CC(=O)O)C(=O)N[C@@H](Cc1ccc(O)cc1)C(=O)N1CCC[C@H]1C(=O)N[C@@H](CCCNC(=N)N)C(=O)N[C@H](C(=O)N[C@@H](CC(=O)O)C(=O)N[C@H](C(=O)NCC(=O)N[C@@H](CO)C(=O)NCC(=O)N[C@@H](CO)C(=O)N1CCC[C@H]1C(N)=O)C(C)C)[C@@H](C)O) [calcitonin derivative M32]
0.075 nM	{C20 diacid-γGlu}-ASQLSTAVLGRLSQELHRLQDFPRTDVGSGSP-NH2 (SMILES CC(C)C[C@H](NC(=O)[C@H](CCCNC(=N)N)NC(=O)CNC(=O)[C@H](CC(C)C)NC(=O)[C@@H](NC(=O)[C@H](C)NC(=O)[C@@H](NC(=O)[C@H](CO)NC(=O)[C@H](CC(C)C)NC(=O)[C@H](CCC(N)=O)NC(=O)[C@H](CO)NC(=O)[C@H](C)NC(=O)CC[C@H](NC(=O)CCCCCCCCCCCCCCCCCCC(=O)O)C(=O)O)[C@@H](C)O)C(C)C)C(=O)N[C@@H](CO)C(=O)N[C@@H](CCC(N)=O)C(=O)N[C@@H](CCC(=O)O)C(=O)N[C@@H](CC(C)C)C(=O)N[C@@H](Cc1c[nH]cn1)C(=O)N[C@@H](CCCNC(=N)N)C(=O)N[C@@H](CC(C)C)C(=O)N[C@@H](CCC(N)=O)C(=O)N[C@@H](CC(=O)O)C(=O)N[C@@H](Cc1ccccc1)C(=O)N1CCC[C@H]1C(=O)N[C@@H](CCCNC(=N)N)C(=O)N[C@H](C(=O)N[C@@H](CC(=O)O)C(=O)N[C@H](C(=O)NCC(=O)N[C@@H](CO)C(=O)NCC(=O)N[C@@H](CO)C(=O)N1CCC[C@H]1C(N)=O)C(C)C)[C@@H](C)O) [calcitonin derivative M49]
0.017 nM	{C22 diacid-γGlu}-ASQLSTAVLGRLSEELHRLQDYPRTDVGSGSP-NH2 (SMILES CC(C)C[C@H](NC(=O)[C@H](CCCNC(=N)N)NC(=O)CNC(=O)[C@H](CC(C)C)NC(=O)[C@@H](NC(=O)[C@H](C)NC(=O)[C@@H](NC(=O)[C@H](CO)NC(=O)[C@H](CC(C)C)NC(=O)[C@H](CCC(N)=O)NC(=O)[C@H](CO)NC(=O)[C@H](C)NC(=O)CC[C@H](NC(=O)CCCCCCCCCCCCCCCCCCCCC(=O)O)C(=O)O)[C@@H](C)O)C(C)C)C(=O)N[C@@H](CO)C(=O)N[C@@H](CCC(=O)O)C(=O)N[C@@H](CCC(=O)O)C(=O)N[C@@H](CC(C)C)C(=O)N[C@@H](Cc1c[nH]cn1)C(=O)N[C@@H](CCCNC(=N)N)C(=O)N[C@@H](CC(C)C)C(=O)N[C@@H](CCC(N)=O)C(=O)N[C@@H](CC(=O)O)C(=O)N[C@@H](Cc1ccc(O)cc1)C(=O)N1CCC[C@H]1C(=O)N[C@@H](CCCNC(=N)N)C(=O)N[C@H](C(=O)N[C@@H](CC(=O)O)C(=O)N[C@H](C(=O)NCC(=O)N[C@@H](CO)C(=O)NCC(=O)N[C@@H](CO)C(=O)N1CCC[C@H]1C(N)=O)C(C)C)[C@@H](C)O) [calcitonin derivative M65]
0.042 nM	{C20 diacid-γGlu}-ASQLSTAVLGRLSQELHRLQDYPRTQSGSGSP-NH2 (SMILES CC(C)C[C@H](NC(=O)[C@H](CCCNC(=N)N)NC(=O)CNC(=O)[C@H](CC(C)C)NC(=O)[C@@H](NC(=O)[C@H](C)NC(=O)[C@@H](NC(=O)[C@H](CO)NC(=O)[C@H](CC(C)C)NC(=O)[C@H](CCC(N)=O)NC(=O)[C@H](CO)NC(=O)[C@H](C)NC(=O)CC[C@H](NC(=O)CCCCCCCCCCCCCCCCCCC(=O)O)C(=O)O)[C@@H](C)O)C(C)C)C(=O)N[C@@H](CO)C(=O)N[C@@H](CCC(N)=O)C(=O)N[C@@H](CCC(=O)O)C(=O)N[C@@H](CC(C)C)C(=O)N[C@@H](Cc1c[nH]cn1)C(=O)N[C@@H](CCCNC(=N)N)C(=O)N[C@@H](CC(C)C)C(=O)N[C@@H](CCC(N)=O)C(=O)N[C@@H](CC(=O)O)C(=O)N[C@@H](Cc1ccc(O)cc1)C(=O)N1CCC[C@H]1C(=O)N[C@@H](CCCNC(=N)N)C(=O)N[C@H](C(=O)N[C@@H](CCC(N)=O)C(=O)N[C@@H](CO)C(=O)NCC(=O)N[C@@H](CO)C(=O)NCC(=O)N[C@@H](CO)C(=O)N1CCC[C@H]1C(N)=O)[C@@H](C)O) [calcitonin derivative M17]
0.058 nM	{C20 diacid-γGlu}-ASELSTAVLGRLSEELHRLEDYPRTDVGSGSP-NH2 (SMILES CC(C)C[C@H](NC(=O)[C@H](CCCNC(=N)N)NC(=O)CNC(=O)[C@H](CC(C)C)NC(=O)[C@@H](NC(=O)[C@H](C)NC(=O)[C@@H](NC(=O)[C@H](CO)NC(=O)[C@H](CC(C)C)NC(=O)[C@H](CCC(=O)O)NC(=O)[C@H](CO)NC(=O)[C@H](C)NC(=O)CC[C@H](NC(=O)CCCCCCCCCCCCCCCCCCC(=O)O)C(=O)O)[C@@H](C)O)C(C)C)C(=O)N[C@@H](CO)C(=O)N[C@@H](CCC(=O)O)C(=O)N[C@@H](CCC(=O)O)C(=O)N[C@@H](CC(C)C)C(=O)N[C@@H](Cc1c[nH]cn1)C(=O)N[C@@H](CCCNC(=N)N)C(=O)N[C@@H](CC(C)C)C(=O)N[C@@H](CCC(=O)O)C(=O)N[C@@H](CC(=O)O)C(=O)N[C@@H](Cc1ccc(O)cc1)C(=O)N1CCC[C@H]1C(=O)N[C@@H](CCCNC(=N)N)C(=O)N[C@H](C(=O)N[C@@H](CC(=O)O)C(=O)N[C@H](C(=O)NCC(=O)N[C@@H](CO)C(=O)NCC(=O)N[C@@H](CO)C(=O)N1CCC[C@H]1C(N)=O)C(C)C)[C@@H](C)O) [calcitonin derivative M34]
0.017 nM	{C20 diacid-γGlu}-ASQLSTAVLGRLSDELHRLQDLPRTDVGSGSP-NH2 (SMILES CC(C)C[C@H](NC(=O)[C@H](CCCNC(=N)N)NC(=O)CNC(=O)[C@H](CC(C)C)NC(=O)[C@@H](NC(=O)[C@H](C)NC(=O)[C@@H](NC(=O)[C@H](CO)NC(=O)[C@H](CC(C)C)NC(=O)[C@H](CCC(N)=O)NC(=O)[C@H](CO)NC(=O)[C@H](C)NC(=O)CC[C@H](NC(=O)CCCCCCCCCCCCCCCCCCC(=O)O)C(=O)O)[C@@H](C)O)C(C)C)C(=O)N[C@@H](CO)C(=O)N[C@@H](CC(=O)O)C(=O)N[C@@H](CCC(=O)O)C(=O)N[C@@H](CC(C)C)C(=O)N[C@@H](Cc1c[nH]cn1)C(=O)N[C@@H](CCCNC(=N)N)C(=O)N[C@@H](CC(C)C)C(=O)N[C@@H](CCC(N)=O)C(=O)N[C@@H](CC(=O)O)C(=O)N[C@@H](CC(C)C)C(=O)N1CCC[C@H]1C(=O)N[C@@H](CCCNC(=N)N)C(=O)N[C@H](C(=O)N[C@@H](CC(=O)O)C(=O)N[C@H](C(=O)NCC(=O)N[C@@H](CO)C(=O)NCC(=O)N[C@@H](CO)C(=O)N1CCC[C@H]1C(N)=O)C(C)C)[C@@H](C)O) [calcitonin derivative M50]
0.017 nM	{C22 diacid-γGlu-AEEA-AEEA}-ASQLSTAVLGRLSEELHRLQDYPRTDVGSGSP-NH2 (SMILES CC(C)C[C@H](NC(=O)[C@H](CCCNC(=N)N)NC(=O)CNC(=O)[C@H](CC(C)C)NC(=O)[C@@H](NC(=O)[C@H](C)NC(=O)[C@@H](NC(=O)[C@H](CO)NC(=O)[C@H](CC(C)C)NC(=O)[C@H](CCC(N)=O)NC(=O)[C@H](CO)NC(=O)[C@H](C)NC(=O)COCCOCCNC(=O)COCCOCCNC(=O)CC[C@H](NC(=O)CCCCCCCCCCCCCCCCCCCCC(=O)O)C(=O)O)[C@@H](C)O)C(C)C)C(=O)N[C@@H](CO)C(=O)N[C@@H](CCC(=O)O)C(=O)N[C@@H](CCC(=O)O)C(=O)N[C@@H](CC(C)C)C(=O)N[C@@H](Cc1c[nH]cn1)C(=O)N[C@@H](CCCNC(=N)N)C(=O)N[C@@H](CC(C)C)C(=O)N[C@@H](CCC(N)=O)C(=O)N[C@@H](CC(=O)O)C(=O)N[C@@H](Cc1ccc(O)cc1)C(=O)N1CCC[C@H]1C(=O)N[C@@H](CCCNC(=N)N)C(=O)N[C@H](C(=O)N[C@@H](CC(=O)O)C(=O)N[C@H](C(=O)NCC(=O)N[C@@H](CO)C(=O)NCC(=O)N[C@@H](CO)C(=O)N1CCC[C@H]1C(N)=O)C(C)C)[C@@H](C)O) [calcitonin derivative M66]
